This is an account of results in the domain aggregation screens of Martell et al. (2025).

Where only a bound is given, the exact number is not on record here.

A short description of the data set: soluble fraction after stress (log2 fold change); higher = more stays soluble; pooled small domains, quantitative proteomics. The following applies: stress: pH 4. The procedure, abridged:
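High-throughput quantitative proteomics was run on pooled custom libraries of small protein domains following pH 4 stress. Fold changes are on a log2 scale; higher values mean more of a domain remained soluble. The fold change in soluble amount is taken as a measure of aggregation propensity.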
With “HMKIEETLGKTAQVYIPIPQYLSGIGKVTLSVRGSLRELDAMTEEEKIPSNTIVRIVKVQDQVLFVKRA”, the “soluble fraction (log2)” value is -0.0641.

With “HMKIHNSIREITDFDRKQNSNIPSDAKYRIVFYTPQGNKTIIPEELQGLQYYRSKELAEIALNKKLNSN”, the “soluble fraction (log2)” value was 0.0952.

Turning to “HMKILKQLEAIIEKEGLNESAKQFYLREISELDKEKQQEIINLVDKMEQAGFKNNLASAFSEVTEDIPQF”, the “soluble fraction (log2)” value is -0.518.

As to “HMKILNYQSLVGKKGITKSMLRPAGIVEIEGRRYDVVTRGEFIEPGKMITVDEVQGNRIIVQIERE”, the “soluble fraction (log2)” value came out at 0.189.

As to “HMKIPIIYQPLKNAKRIKIYIPYELKELRTIFKKINTTFWHPNQKLWSIIYTQENVALIKNLFGKNYKIVN”, the “soluble fraction (log2)” value is -0.0514.

As for “HMKIQEVDYSTFLNMLNEKSIAQVEIQDNQIAFNSNQEGNKQIYVTGRIEEDTELVNRLQAAGVQFSRV”, the “soluble fraction (log2)” value is -0.638.

In the case of “HMKIRIIKTASNAKAVQIVSYKNNKRIVLQHIGSAHTDETLNDLKILAEEWIKDYNHQLSIF”, the “soluble fraction (log2)” value is -0.671.

In the case of “HMKISDLPAAQVYREIVHAWPKAAAYADLAPINNGGMQRWRDVVHEWVLRGYNPANLRGMLEWYKAGIPTR”, the “soluble fraction (log2)” value was -0.132.

Consider “HMKISDMIETNLKFLRGKHSISQAELAESLGIPRTTLSAYERGFVEPNIELMLKMAKYFNVSLDDLIAYN”, for which the “soluble fraction (log2)” value is -1.3.

Regarding “HMKISQSRKAGKLVLESELKRGGVSLDQYRGGRMSRILELIGVKSLNELLTDLGTGKKTGALVAERFFSGL”, the “soluble fraction (log2)” value was -0.036.

For “HMKITFNPVSSGRLDIILAEKTGYTRSYVKQLVEKQAVTINGEAAKKSGQNVKAGDEIALDEP”, the “soluble fraction (log2)” value was determined as 0.149.

For the sequence “HMKITIDSVERDETFRLIWGTGWKPKNKIQELAAIQAKKNGLGRMNEVAGLAAWRGIWQQVAEQVAQEVL”, the “soluble fraction (log2)” value was -0.843.

Regarding “HMKITKIWFTADHIFGRDEEGKEYSQSLLWYPKLSAASDEERSQYTFGYDGIHWRSLDEDISFESF”, the “soluble fraction (log2)” value is -1.52.

Regarding “HMKIVFGHVKWFDIDKGFGFLVLEDEGGDVLLHANVLKNFGRTSVSEDTKIEFEFLETDKGRQVSTIYNIL”, the “soluble fraction (log2)” value is -2.19.

Turning to “HMKIVQDIAFSDFLNEVEKDNVLDVNIKGDLINGNLADGRKFKTYTPYDPNLIEKLSNKNVTINVEPYN”, the “soluble fraction (log2)” value is 0.00986.

Regarding “HMKKAENEKLNIPYDVTEFLASSIKDDIRMMEGAMVKLLALSSLTKQDITQSLAKRVIQDVLGSSA”, the “soluble fraction (log2)” value is -0.451.

As for “HMKKAMIISTKRGTPAAELDKIIREFEAKGLSVTMIRGTDYNVFGLVGDTTVIDEKQVRANPYVENVQRV”, the “soluble fraction (log2)” value is -0.325.

On to “HMKKATYDVMVREALVSFKKKGATLQSIKKKIKADYAIEANATAVKSAIQKGMEAGSIRKSYDLYFFMD”, for which the “soluble fraction (log2)” value is 0.15.

For the sequence “HMKKDDLKQINGIGTTIEKKLNEIDIYNFYQISNLSKEDIETISEKIKTFPGKIERDNWVGQAQELL”, the “soluble fraction (log2)” value is -0.844.

Regarding “HMKKIFIDAPLDTMITIPKDTTHHLLTVFRHKMEKPVLVGGSDGRTGVYQIQDVVDGEASAKLVGDIQ”, the “soluble fraction (log2)” value stood at 0.318.

“HMKKISAKQQQILDYISSYSLEHGYPPSVREIGAEMGLRSPSTVHAHLKKLQEAGYLEPNEHKSRALTP”: the “soluble fraction (log2)” value was -0.0896.

Take “HMKKITTANPLDINRATLAQLDTLPGIGPVTAERIIAYRSKVGRINSLDELKKISGLGGMKFEEIKPLLRV”: the “soluble fraction (log2)” value was -0.126.

For “HMKKKLPRYLQEQKYGNGMVFYRYNPTARYIDEGIVTRTNLGSDLSIAKKKANEFNKLIDAFLQQQSE”, the “soluble fraction (log2)” value is -0.0245.

Turning to “HMKKMSFKEAFLKYVEIKDNPYNMESVKMLVSLQPLIVKAYSILGVDKVRRLNYVKTKIQDAIINGD”, the “soluble fraction (log2)” value is 0.0648.

As for “HMKKNLELGLLPHEVKSILGEPDFIDTITDIDGIRYDMWSYTKLNVTKRLYFEDLFLVRMEE”, the “soluble fraction (log2)” value is -1.42.

Consider “HMKKNNTTPIPKTLNYVNIKGLSNEAVERLNKHKPSTLGQASRLEGITPAATSLISIAIKKNQLLEKAES”, for which the “soluble fraction (log2)” value was found to be 0.123.

Consider “HMKKPAERRKELVDAAAHLFAEKGYENTSVRDILDAVGGAPGMFYYYFKSKQDIYVAVMEDF”, for which the “soluble fraction (log2)” value is -1.1.

For “HMKKPANLISEDRMVEVLYDVIIINTAKGVNKQLLQNNINNPLNYIYRSHGIDSLQFAESNAYYTS”, the “soluble fraction (log2)” value is -0.798.

As for “HMKKSGFFSAGDRIQLTDNKGRQYSFNITEGKEFHTHQGFIKHDDLIGMPEGSVVSINSTTGVVQKFMAF”, the “soluble fraction (log2)” value is -0.584.

For the sequence “HMKKSIRIFELMKAKVAAEIFDQMILEGKIEDVFDIIVRLKDSNVSNIMKTMSVENSSRLVQKLERYNKD”, the “soluble fraction (log2)” value was -0.626.

On to “HMKKVRIPDDPEEAYRKALKTAMNIVGYKDNTEFTLREKLSERGYSGETVDAVAEFMKSKGYV”, for which the “soluble fraction (log2)” value amounted to 0.00228.

Consider “HMKKVTMQDIANILNISRVTVWKVLNNQPGVSKQLRDQILLTAKETGYLKPGQEAEAYLEENNIYFEG”, for which the “soluble fraction (log2)” value was -0.344.

Regarding “HMKKYDIKEAQEIAEINRIPGLVTTSHGRRVYFDPKIMQYVSEEQIVKKYGQKTVKMLDQWYVSNILNK”, the “soluble fraction (log2)” value turned out to be 0.419.

In the case of “HMKKYLIIDAANEKIIFKIIDNNKTYTNDYENSRKNFDRFAVLLFNFLNKNMISFDTIDKAL”, the “soluble fraction (log2)” value is -0.19.

In the case of “HMKLARGEFEIMAKFIKEISGISLEQNKTYLIESRLSDLAESEGVKTFSDFFFKAKFNKILKEKIIDAI”, the “soluble fraction (log2)” value is -0.957.

On to “HMKLHFTINGVHYTWYKQFIRGIQIRELGNIPREDELYLDLPDGWKDDFIEDDEIVDLARPGVEHFISRAK”, for which the “soluble fraction (log2)” value was 0.321.

For “HMKLIIVPNLVGQSRRSVEISLQQIGLRIDTVYTEFNPDYPKGTVAWQFPKSGDHIKKGMGLQITVSQG”, the “soluble fraction (log2)” value is 0.22.

Regarding “HMKLINEDLNNEIVFEENKVNLLVIENKKKFVQFIQEIIKQINGDEGKFSLFDINTELKIHDKIDII”, the “soluble fraction (log2)” value is -0.0802.

Consider “HMKLIPLTDMRGQLRSGAPLPWGVRDAQGNLLLGKGHVIASDDMLEALLARGMFVDAEEAKAARG”, for which the “soluble fraction (log2)” value is 0.105.

With “HMKLISVAVMRASDAAEIAGGTDSKTLMYRAGLGLFQSWDWHGKIDIVTGSGNNAGDGYVLALLL”, the “soluble fraction (log2)” value was -0.548.

In the case of “HMKLNKRQYAYQVIRSRILDGTYVPGQRIIIDQIAKEVNSSHIPVREAIHQLESEQLIDYEPNIGAIVKG”, the “soluble fraction (log2)” value turned out to be 0.181.

As for “HMKLSALRDKIKEHLLRQIQNGELQVGKTINLAALSRVTGISVTPIREALTQLEQAQVIQAVPNRGFVVA”, the “soluble fraction (log2)” value came out at 0.184.

Regarding “HMKLSIGGTIEKLRRNKGLSHQQLANALGVTPDTVEKWEINAAYPDITLLSPIARLLGTTLDALLMF”, the “soluble fraction (log2)” value is -0.828.

On to “HMKLSKLTKPELDEIFRNANFTEEEEKVFWLLARGKSLEQISAKTFLPIATVNRRVKSIKDKIG”, for which the “soluble fraction (log2)” value is 0.34.

Take “HMKLTKPKLIQLIHIAKSKLNMDELSYRVLLDNLTGKTSTTKMTVGELLKVYESMKDKGFKPQV”: the “soluble fraction (log2)” value stood at 0.104.

As for “HMKLTTRQTEIINIVKAEQPISGEKIAQNLGLSRATLRNDLSILTMTGLLDAKPKVGYFYTGQ”, the “soluble fraction (log2)” value worked out at 0.0805.

Turning to “HMKLVESALSILEEAVDRDFHGNLGDAARYFDIPYQTIYSWLKSRKRVPSLRALEPVLEKLGVSFTT”, the “soluble fraction (log2)” value was -0.479.

On to “HMKLVTIPNVIGKTKEDAMKTLKDLGVTVTVETKESEKDDGTVIAQSKAEGTKLTAGENVTITVSKKKK”, for which the “soluble fraction (log2)” value is -0.487.

For “HMKMATITKRTNPSGAVVYRAQVRVKREGYPPYSESRTFSKKSLATEWAKRREFEIETNPDLLFN”, the “soluble fraction (log2)” value turned out to be 0.0738.

“HMKMLEINDNDSVGLKNLKTQYNHNQKVIENFQLEINKVINDGELPDKYLLDGMEKYQKLNMQIMSTIEKQ”: the “soluble fraction (log2)” value stood at 0.221.

For the sequence “HMKMPNGYGSVYKLSGNRRKPWAARVTDGWVNDTKTKKSKQKYKFIGFYETRKEALLALADYNANP”, the “soluble fraction (log2)” value came out at 0.22.

With “HMKMSLKENLLELLQKSSGEFLSGERAAETLGVSRTAVWKAVTSLKNEGYNIESVTNRGYRFS”, the “soluble fraction (log2)” value worked out at 0.395.

Take “HMKNANGYGSITKLKGNRRKPYMVRITVGRDENGFPIRKVLGYYSSKANAVAALSDYNREPYDI”: the “soluble fraction (log2)” value is -0.281.

In the case of “HMKNENSLLVSRLAEEKIINRAKLVLMEYLKLSEPQAHRYIEKQAMDLQISRAEVAARVLETYE”, the “soluble fraction (log2)” value came to 0.101.

As for “HMKNEVENLSYMINRIIEYRDLNNLSNKNLANKIGISEALLSYILNGRRKLSKEIQRKIALFLLND”, the “soluble fraction (log2)” value was -0.337.

“HMKNFAPVWGEEGAEFGKEVDTGFRLRIVEKEKDVNDLFEVIQKHTIQSQWKPGSTGTESIYKRI”: the “soluble fraction (log2)” value was -1.35.

On to “HMKNHIEERRKARGMTQQQLASELGVSRQTIISLENGKYNPSILLAHSIARLFGERIEDIFILR”, for which the “soluble fraction (log2)” value is -0.354.

As for “HMKNINTNIGKNLKRIRKLRGLTIDALATSSGVSKSMISEIERGIRNPSITIIWSLANALKTPLNYFLKE”, the “soluble fraction (log2)” value was at least 0.43.

For the sequence “HMKNKFYEEFSDYIFKHTGIHYAEANYYQLDARINKLMKFLETSDENDVLKAIQGGAVKDQRVHQMIVDLA”, the “soluble fraction (log2)” value is -1.27.

As for “HMKNKRERLGIISEILRMQVIGSQEELLDILRAKGYDVTQATLSRDLKVLKVAKTPLSNGAYKYVLPPQ”, the “soluble fraction (log2)” value was at least 0.43.

“HMKNLSQAEFMYLFKILAFGSTDPDNHPEMAATGMEIAKMLQGLLLSGNVLADILRKNQNVQFWL”: the “soluble fraction (log2)” value was -0.0785.

Turning to “HMKNNITFSEFLHEVDNGRVIKVNIQGNNITGILADGKSFNTYTPNDPSLIEKLTSKGVSISATPI”, the “soluble fraction (log2)” value turned out to be 0.127.

Consider “HMKNNLKGSPIIIAGGYGVGSKENFNLLFDLAKVLNAEVGASRAAVDAGFVEHDRQIGQTGVTVRP”, for which the “soluble fraction (log2)” value is -0.0469.

With “HMKNNYQYIVDQIKQLILDGELIVGDRLPSERDLSEMYQVSRASVREALKALETIGLLESRHGGGNYIVNH”, the “soluble fraction (log2)” value was -0.68.

With “HMKNQIGFKIKNARRKASISQADLSAKLGISSSYLNLIESGKRNVNVDLLLKVSDVLNIELKDLSK”, the “soluble fraction (log2)” value was -0.437.

In the case of “HMKNTYTVVSGDTLWGIASRKLGGGSNWTKIYDANAATIESVANRRRGGRGSDHGHWIYPGTVLTI”, the “soluble fraction (log2)” value is 0.216.

As to “HMKNYYRILGLNIDAEYEEIKAAYRILAQRHHPDKGGAAAEFRLIQEAYDILSNPLTKRNYDADLLATLN”, the “soluble fraction (log2)” value was -1.08.

With “HMKPDMAVIVGSRTLTFATTTDRQILVLRTDGTMVNRLSMKAGETRTITLPAGVYIVNGKKIIV”, the “soluble fraction (log2)” value was determined as 0.22.

As for “HMKPFSLESYKAFVVKRLGLFPETSSAQMHDWLKEEYPDFPLITPRTVYNFVMKIRQDYGIAKV”, the “soluble fraction (log2)” value was -0.732.
